Measurements: IntAct's records for PubMed 20562859

How the values were obtained:
atg5_human ATG5 = atg5_human ATG5 (UniProt Q9H1Y0)
nek9_human NEK9 = biological target: T1, nek9_human NEK9 (UniProt Q8TD19)
T1 sequence: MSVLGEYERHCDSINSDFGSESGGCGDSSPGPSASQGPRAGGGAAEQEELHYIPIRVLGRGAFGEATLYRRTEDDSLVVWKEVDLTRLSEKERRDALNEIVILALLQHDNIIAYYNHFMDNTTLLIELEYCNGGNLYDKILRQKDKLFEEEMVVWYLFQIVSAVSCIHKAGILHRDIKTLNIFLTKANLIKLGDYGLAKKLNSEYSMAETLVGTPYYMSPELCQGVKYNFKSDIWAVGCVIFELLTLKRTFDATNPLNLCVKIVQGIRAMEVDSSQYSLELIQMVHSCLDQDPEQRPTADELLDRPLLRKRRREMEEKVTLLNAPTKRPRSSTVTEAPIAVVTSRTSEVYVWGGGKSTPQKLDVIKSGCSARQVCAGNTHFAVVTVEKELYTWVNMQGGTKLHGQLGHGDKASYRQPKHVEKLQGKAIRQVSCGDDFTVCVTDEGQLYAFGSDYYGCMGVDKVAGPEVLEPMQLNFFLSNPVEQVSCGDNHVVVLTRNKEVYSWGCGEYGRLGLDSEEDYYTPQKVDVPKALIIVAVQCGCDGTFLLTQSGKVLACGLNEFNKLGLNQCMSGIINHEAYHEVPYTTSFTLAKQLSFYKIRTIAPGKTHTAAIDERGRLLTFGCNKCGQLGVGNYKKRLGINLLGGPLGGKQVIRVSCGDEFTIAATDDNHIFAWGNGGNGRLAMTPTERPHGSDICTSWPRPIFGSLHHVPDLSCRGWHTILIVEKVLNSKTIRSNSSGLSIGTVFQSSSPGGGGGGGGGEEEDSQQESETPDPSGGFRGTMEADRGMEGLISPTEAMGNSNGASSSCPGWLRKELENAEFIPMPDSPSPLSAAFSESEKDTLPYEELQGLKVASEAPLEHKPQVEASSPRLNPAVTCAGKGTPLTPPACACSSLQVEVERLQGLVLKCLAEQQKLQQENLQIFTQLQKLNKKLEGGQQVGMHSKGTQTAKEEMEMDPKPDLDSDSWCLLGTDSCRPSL

ulk1_human ULK1 = biological target: T2, ulk1_human ULK1 (UniProt O75385)
T2 sequence: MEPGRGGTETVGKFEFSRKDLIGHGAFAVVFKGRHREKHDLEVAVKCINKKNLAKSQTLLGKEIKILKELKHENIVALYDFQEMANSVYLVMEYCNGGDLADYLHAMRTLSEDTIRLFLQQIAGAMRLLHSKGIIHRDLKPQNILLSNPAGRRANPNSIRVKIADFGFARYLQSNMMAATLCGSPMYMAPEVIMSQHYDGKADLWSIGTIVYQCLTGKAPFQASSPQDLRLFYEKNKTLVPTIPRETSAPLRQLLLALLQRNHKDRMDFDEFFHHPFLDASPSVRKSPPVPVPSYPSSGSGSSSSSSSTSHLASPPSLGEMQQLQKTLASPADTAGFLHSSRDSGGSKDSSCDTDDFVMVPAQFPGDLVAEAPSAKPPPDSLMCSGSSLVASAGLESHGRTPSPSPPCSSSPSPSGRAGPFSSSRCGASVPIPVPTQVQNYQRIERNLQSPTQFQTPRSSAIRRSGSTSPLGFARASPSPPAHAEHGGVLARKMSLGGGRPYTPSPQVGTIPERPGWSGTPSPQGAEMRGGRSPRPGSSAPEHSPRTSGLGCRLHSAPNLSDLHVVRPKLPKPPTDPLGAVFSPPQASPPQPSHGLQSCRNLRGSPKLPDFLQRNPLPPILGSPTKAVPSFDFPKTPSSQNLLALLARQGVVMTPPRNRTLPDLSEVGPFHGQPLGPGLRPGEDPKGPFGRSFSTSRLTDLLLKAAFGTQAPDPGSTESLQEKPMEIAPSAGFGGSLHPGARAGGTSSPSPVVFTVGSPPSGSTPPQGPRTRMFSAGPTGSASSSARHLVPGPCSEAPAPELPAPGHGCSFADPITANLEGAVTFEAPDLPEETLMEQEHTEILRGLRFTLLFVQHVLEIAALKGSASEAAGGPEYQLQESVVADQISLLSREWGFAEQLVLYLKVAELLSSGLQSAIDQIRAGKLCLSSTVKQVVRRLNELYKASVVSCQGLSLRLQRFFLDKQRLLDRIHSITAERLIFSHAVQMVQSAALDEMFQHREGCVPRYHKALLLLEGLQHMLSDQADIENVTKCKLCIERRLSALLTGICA

daaf4_human DNAAF4 = biological target: T3, daaf4_human DNAAF4 (UniProt Q8WXU2)
T3 sequence: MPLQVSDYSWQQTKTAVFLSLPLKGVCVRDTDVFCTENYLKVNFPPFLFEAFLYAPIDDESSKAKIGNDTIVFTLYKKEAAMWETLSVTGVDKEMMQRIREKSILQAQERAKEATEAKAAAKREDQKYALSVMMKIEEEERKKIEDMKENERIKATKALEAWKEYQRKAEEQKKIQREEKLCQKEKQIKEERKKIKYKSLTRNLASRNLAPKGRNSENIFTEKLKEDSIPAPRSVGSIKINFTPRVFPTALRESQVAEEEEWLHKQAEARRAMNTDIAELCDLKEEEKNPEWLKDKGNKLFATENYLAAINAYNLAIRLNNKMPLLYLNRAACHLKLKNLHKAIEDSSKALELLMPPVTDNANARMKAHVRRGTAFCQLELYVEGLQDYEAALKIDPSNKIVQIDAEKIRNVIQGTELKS

Chain of atg5_human ATG5 (Q9H1Y0 whole entry): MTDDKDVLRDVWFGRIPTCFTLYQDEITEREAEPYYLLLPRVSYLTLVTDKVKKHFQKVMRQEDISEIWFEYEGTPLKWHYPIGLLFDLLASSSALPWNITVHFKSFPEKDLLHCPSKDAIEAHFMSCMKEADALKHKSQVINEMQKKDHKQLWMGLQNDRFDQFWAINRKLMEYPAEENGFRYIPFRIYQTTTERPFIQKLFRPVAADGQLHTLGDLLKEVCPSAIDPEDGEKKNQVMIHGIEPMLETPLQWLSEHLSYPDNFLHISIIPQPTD

effect of a mutation on the interaction (atg5_human ATG5) | effect of a mutation on the interaction (ulk1_human ULK1) | effect of a mutation on the interaction (daaf4_human DNAAF4) | Substance | effect of a mutation on the interaction (nek9_human NEK9)
increasing interaction | – | – | Microtubule-associated protein 1 light chain 3 beta (Homo sapiens) (from UniProt Q9GZQ8) F52A;L53A | decreasing interaction
– | decreasing interaction | decreasing interaction | Microtubule-associated protein 1 light chain 3 beta (Homo sapiens) (from UniProt Q9GZQ8) R69A | –
